Laboratory results: PMC11490885

Target: hβ3-ICL-del 1D4 (human GABAA receptor β3 subunit, intracellular loop deleted, homomeric receptor) (human)
Assay: native MS; purified β3-ICL-del receptor, buffer exchanged into 200 mM ammonium acetate pH 8, 0.08 mM DMNG; static nanospray, Q-Exactive EMR; unlabeled receptor seen as a single species; pentamer

hβ3-ICL-del 1D4 (human GABAA receptor β3 subunit, intracellular loop deleted, homomeric receptor)
stoichiometry N: 5
